Peptide text beside a SMILES is read from it.
Tests used:
C57BL/6 mice = test: Comparative analysis of in vivo blood-brain barrier (BBB) permeability (two-photon microscopy); set-up: species or system mouse; details: 15 mg/kg tail vein, imaging for 90 minutes; FIG. 5A-5F
Experimental: Specifically, in order to perform in vivo real-time imaging using a two photon microscopy, operations to install a cranial window were performed in living mice (C57BL/6). Before making the cranial window, inhalation anesthesia was induced with 3% isoflurane in the mice, and the body temperature of the mice was maintained at 36.5° C. to 37.5° C. by using a heating pad. After induction of anesthesia, the concentration of isoflurane was adjusted to 1.5% to maintain anesthesia. In addition, to confirm the degree of maintenance of anesthesia, heart rate and SpO2 were confirmed in real time. Afterwards, craniotomy was performed by using a dental drill in order that the cranial window has a diameter of 3 mm at the skull coordinates of ML, +2.5 mm, and AP, −1.5 mm. After the skull was removed by craniotomy, the brain was covered with a cover glass having a diameter of 4 mm, and the cover glass was adhered by using a cyanoacrylic bond. Next, a head frame, capable of fixing the mouse's head under a two-photon microscope, was attached so that the cover glass would come to the center. After a first bonding of the cover glass and the frame by using the bond, a second bonding was performed and all exposed skulls were covered from the border of the cover glass with dental resin so that imaging could be performed by using a water immersion lens. […]

[1] = test system: hCMEC/D3 cells, which are human blood-brain barrier cells; test: In vitro cell permeability analysis (FITC fluorescence imaging, Cytation 5); assay type: cell-based; details: peptides linked to FITC, 4 μM, 2 hours, FIG. 1
Experimental: The present inventors performed in vitro cell permeability analysis on a total of 12 candidate peptides synthesized in Example 1 above. Specifically, hCMEC/D3 cells, which are human blood-brain barrier cells, were seeded in a 96-well plate at 18,000 cells/well, and incubated overnight at 37° C. under CO2 conditions in a endothelial cell growth medium (EGM), which is an […], until the cells reached 80% to 90% of the plate area. Subsequently, the 12 candidate peptides linked to FITC prepared in Example 1-2 and FITC alone, a negative control, were diluted in the medium to 4 μM to prepare an amount to be treated by 100 μl per well. Subsequently, the culture solution was removed from the cell culture plate by suction, and the peptide was diluted and treated with the solution prepared in advance, and then cultured at 37° C. under CO2 conditions for 2 hours. […] After incubation, DAPI and GFP fluorescence were image read by using a Cytation 5 equipment, and the cell nucleus was parcellated with DAPI by image processing. Subsequently, a value of 20 μM of FITC around the cell nucleus was measured, divided by DAPI to obtain a mean-FITC value, and the value was corrected with a value of FITC experimental group, a negative control group, to calculate permeability in the blood-brain barrier cells. […]

hCMEC/D3 cell line = test: Comparative analysis of cell permeation effect through flow cytometry; assay type: cell-based, human; details: 10 μM, 2 hours, p<0.0001, FIG. 4
Experimental: First, with respect to the transpep-1-FITC and angiopep-2-FITC prepared in Example 1-2, an amount of fluorescence inflow into a single cell was identified and quantified through flow cytometry. Specifically, an hCMEC/D3 cell line was aliquoted at 15,000 cells/well using an EGM culture medium containing 2% bovine calf serum (BCS), and 24 hours later, cells were treated with each of the two peptides at a concentration of 10 μM, and then were incubated for 2 hours at 37° C., under CO2 conditions. Thereafter, the cells were washed with 1×PBS, and then were separated from the bottom of the plate by incubating for 3 minutes after 1.1% trypsinase-EDTA (TE) was added, and then an EGM cell culture solution of about 3 times the amount of TE was added, and the sample was centrifuged at 100 rpm for 5 minutes. Next, the supernatant was removed by suction, and the cells were resuspended in 250 μl of 1×PBS, and then transferred to a BD Falcon 12×75 mm Tube with Cell Strainer Cap, and inflow of fluorescence according to each peptide was analyzed by flow cytometry.

For `CC(C)C[C@H](NC(=O)[C@H](CCCNC(=N)N)NC(=O)[C@H](CCC(=O)O)NC(=O)[C@H](Cc1c[nH]cn1)NC(=O)[C@H](Cc1c[nH]cn1)NC(=O)CNC(=S)Nc1ccc2c(c1)C(=O)OC21c2ccc(O)cc2Oc2cc(O)ccc21)C(=O)N[C@@H](CCCCN)C(=O)N[C@@H](CO)C(=O)N[C@@H](CC(=O)O)C(=O)N[C@@H](CCC(=O)O)C(=O)N[C@@H](Cc1c[nH]c2ccccc12)C(=O)N[C@@H](CO)C(=O)N[C@H](C(=O)N[C@H](C(=O)N[C@@H](CO)C(=O)NCC(=O)O)[C@@H](C)O)C(C)C` [transpep-1-FITC] (HELM PEPTIDE1{[O=C1OC2(c3ccc(O)cc3Oc3cc(O)ccc32)c2ccc(NC(=S)[*:2])cc21].G.H.H.E.R.L.K.S.D.E.W.S.V.T.S.G}$$$$V2.0), the “amount delivered to the extravascular area compared to angiopep-2-FITC” value (C57BL/6 mice) was “greater” and the “fluorescence in the intravascular region (in vivo stability) compared to angiopep-2-FITC” value (C57BL/6 mice) was “higher in vivo stability”.

GHHERLKSDEWSVTSG (transpep-1) was tested, and the “cell permeability (FITC fluorescence)” value [1] was “confirmed to have cell permeability” and the “fluorescence intensity (inflow into single cell) compared to angiopep-2-FITC” value (hCMEC/D3 cell line) was “significantly higher”.
